Results reported in the nanobody polyreactivity screen of Harvey et al. (2022).

Assay: yeast display, Sf9 membrane polyspecificity reagent, FACS + sequencing; frameworks hold sequencing errors
Method in brief: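 Nanobodies from a synthetic yeast display library (Saccharomyces cerevisiae BJ5465), induced 36–48 hours with galactose, were stained 1 hour at 4 °C with 10% biotinylated, detergent-solubilized Sf9 membrane reagent, enriched on streptavidin microbeads, then FACS-sorted. Anti-HA (expression) and streptavidin (reagent binding) fluorescence set low and high (top ~1%) gates. Polyreactivity labels come from the gate of origin. Genes were colony-PCR amplified, MiSeq 2 × 250 sequenced and filtered by CDR length.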

Sequence | polyreactivity (PSR sort gate)
QVQLVESGGGLVQAGGSLRLSCAASGRTLGPYTMGWYRQAPGKERELVAVISSRTGRTYYADSVKGRFTISRDNAKNTVYLQMNSLKPEDTAVYYCNAGGRYHAPSGDYWGQGTQVTVSS | low polyreactivity
QVQLVESGGGLVQAGGSHRLSCAASGITFARYAIGWSRQAPGKEREFLAAISWSGGNTYYADSVKGRFTISRDYAKNTVYLQLNSLKTEDTAVYYCAAESKGSWRYYYRFYYWGQGTQVTVSS | high polyreactivity
QVQLVESGGGLVQAGGSLRLSCAASVSTFAYYAMGWYRQAPGKERELVAVISVSGDGTSTYYADSVKGRFTISRDNAKNTVYLQMNSLKPEDTAVYNCAAEQVLVGGHTYYLTYDYWGQGTQVTVSS | low polyreactivity
QVQLVESGGGLVQAGGSLRLSCAASGFIFSYNAMGSYRQAPGKERELVAAISRRGGSTYYADSVKGRFTISRDNAKNTVYLQMNSLKPEDTAVYYCAAKSYLDSSGTFNYWGQGTQVTVSS | high polyreactivity
QVQLVESGGGLVQAGGSLRLSFAASGLIVTGYAMGWYRQRPGKEREVVAAITSGGGTNYADSVKGRFTISRDNAKNTVDLQMNSLKPEDTAVYYCAVDFGHYYLYSITSYLWYWDGYDYWGQGTQVTVSS | low polyreactivity
QVQLVESGGGLVQAGGTLRLSCAASGRTIRNYARGRYRQAPVKERELVAAITWSGGSTYYADSVKGRFTISRDNAKNTVYLQMNSLKPEDTAVYYCNVRYYTRTYNYWGQGTQVTVSS | high polyreactivity
QVQLVESGGGLVQAGGSLRLSCAASGRIFKVNAMGWYRQAPGKERELVAVINSRGGSTYYADSVKGRFTISRDNAKNTVYLQMNSLKPEDTAVYYCAAPLTYFKRVYYWGQGTQVTVSS | high polyreactivity
QVQLVESGGGLVQAGGSLRLSCAASGRTIYQYAMGWYRQAPGKERELVAAISRGGSTNYADSLKGRFTISRDNAKNTVYLQMNSLKPEDTAVYYCASWYKFLSLKRLYERDYWGQGTQVTVSS | high polyreactivity
QVQLQESVGGLVQAGGSLRLSCAASGNIFPTDRMGWYRQAPGKELEFVATISDGGSTNYADSVKGRFTISRDNAKNTVYLQMNSLKPEDTAVYYCAVWSLGRWRHYYWGQGTQVTVSS | low polyreactivity
QVQLVESGGGLVQAGGSLRLSCAASGSIFHYYAMGWYRQAPGKERELVAAISWSGGRTNYADSVKGRFTISRDNAKNTVYLQMKSLKPEDTAVYYCAAGNSFSDRGHRVYFQYYYWGQGTLVTVSS | high polyreactivity
QVQLVESGGGLVQAGGSLRLSCAASGFTFYPYAMGCYRQAPGKERELVDAISNGASTHYADSVKGRFTISRDNAKNTVYLQMNSLKPEDTAVYYCNAYTRYPFYFVTSKYDYWGQGTQVTVSS | low polyreactivity
QVQLVESGGGLVQAGGSLRLSCAASGRIFFIYAMGWYRQAPGKERELVAAISYDSGSTYYADSVKGRFTISRDNAKNTVYLQMNSLKPEDTAVYYCAAEWGLVIYSTYGYDYWGQGTQVTVSS | low polyreactivity
QVQLVESGGGLVQAGGSLRLSCAASGSTFTPYVMGWYRQAPGKERELVASITGGGGSTYADSVKGRFTISRDNAKNTVYLQMNSLKPEDTAVYYCGARVWRSYNYWGQGTQVTVSS | high polyreactivity
QVQLVESGGGLVQAGGSLRLSCAASGLTFGYYAMGWYRQAPGKERELVAAISVSGSTYYADSVKGRFTISRDNAKNTVYLQMNSLKPEDTAVYYCNRAIGYRKELDYWGQGTQVTVSS | high polyreactivity
QVQLVESGGGLVQAGGSLRLSCAASGIIFTIYTMGWYRQAPGKERELVAAITRSGGSTYYADSVKGRFTISRDNAKNTVYLQMNSLKPEDTAVYYCAAEWQYPDGDDVGSWRYYYWGQGTQVTVSS | high polyreactivity
QVQLVESGGGLLQAGGSLRLSCAASGRTFYKNAMGWYRHAPRKERELVAAITSGGSTNYADSVKGRFTISRDNAKNSVYLQMNSLKSEDTAVSACAAQLFPYYRSRYSYINNYDYSGQGTQVTVSS | high polyreactivity
QVQLVESGGGIVQAGGSLRLSCAASGGIFYRNAMGWYRQAPGKERELVAAISWRGGSTYYADSVKGRFTNSRDNAKNTVYLQMNSLKPEDTAVYFCAARSVATYRYDYWGQGTQVTVSS | high polyreactivity
QVQLVESGGGLVQAGGSLRLSCAASGRIFRGNAMGWYRQAPGKEREMVAAISRRSGSTYYADSVKGRFTISRDNAKNTVYLQMNSLKPEDTAVYYCAATSSLGDFRYDYWGQVTQVTVSS | high polyreactivity
QVQLVESGGGLVQAGGSLRLSCAASGLIFVYYAMGWYRQAPGKERELVAAITSRGGSTYYADSVKGRFTISRDNAKNTVYLQMNSLKPEDTAVYYCAAVYRHGAFPRYGYWGQGTQVTVSS | high polyreactivity
QVQLVESGGGLVQAGGSLRLSCAASGSTFYPNAMGWYRQAPGKERELVAAITSAGSTYYADSVKGRFTISRDNAKNTVYLQMNSLKPEDTAVYYCAKRRASRYYWGQGTQVTVSS | high polyreactivity
QVQLVESGGGLVQAGGSLRLSCAASGSTFAEYAMGWYRQAPGKERELVATITSSGGGTYYADSVKGRFTISRDNAKNTVYLQMNSLKPEDTAVYYCGQGTQVTVSS | low polyreactivity
QVQLVESGGGLVQAGGSLRLSCAASGFTFGSYAMGWYRQAPGKERELVAVITRSGRTNYADSVKGRFTISRDTAKNTVYLQMNSLKPEDTAVYYCNADDVDDEVSPELTEMDYWGQGTQVTVSS | low polyreactivity

Sequence | polyreactivity (PSR sort gate)
QVQHVESGGGLVQAGGSLRLSCASSGRIFPTNAMGWSRQAPGKDRELVASITRSGSTYYADSVKGRFTISRDNAKNTVYLQMNSLKPEDTAVYNCAAYAYIFMDWGGYPYYLYEYEYLGQGTQVTVSS | low polyreactivity
QVQLVESGGGLVQAGGSLRLSCAASGRIFEIYAMGWYRQAPGTERELVAPISWRGVSTYYADSVKGRFTISRDNAKNTVYVQMNSLKAEDTAVYYCGPELGWGGFYKDGDASQFDYWGQGTQVTVSS | low polyreactivity
QVQLVESGGGLVQAGGSLRLSCAASGRIFQDYAMGWYRQAPGKERELVASIRWSSTSTYYADSVKGRFTISRDNAKNTVYLQMNSLKPEVSAVYYCAKRPFYLTYFRDDYWGQGTQVSVSS | low polyreactivity
QVQLVESGGGLVQAGGSLRLSCAASGYIFGWYTMGWYRQAPGKERELVAAISGGGRTYYADSVKGRFTISRDNAKNTVYLQMNSLKPEDTAVYYCAARVAQVAYPDGYWGQGTQVTVSS | high polyreactivity
QVQLVESGGGLVQAGGSLRLSCAASGSIFGGYGMGWYRQAPGKERELVAAITSGSSTYYADSVKGRFTISRDNAKNTVYLQMNSLKPEDTAVYNCAARPYPHSAYEGDYWGRGTQVTVSS | low polyreactivity
QVQLLESGGGLDQAGGSLRLSSAASGRTFGRNAMGWYRQAPGERELVAVISRGGSTYYADSVKGRFTISRDNAKNTVYLQMNSLKPEDTAVYYCNADTVYTRTAPYDYWGQGTQVTVSS | low polyreactivity
QVQLVESGGGLVQAGGSLRLSCAATGRIFWDYAMGWYRQAPGKERELVAANAWGSGRTYYADSVKGRFTISRDNAKNTVNLQMNSLKPEDTAVYYCHAVRYLFIYPRYDYWGQGTQVTVSS | high polyreactivity
QVQLVESGGGLVQAGGSLRLSCAASGSTFYRNAMGWYRQAPGKERELVAAISSTGGSTYYADSVKGRFTISRDNAKNTVYLQMNSLKPEDTAVYYCARDYSWLTRGSDYDYWGQGTQVTVSS | low polyreactivity
QDQLVESVGGLDQAGGSLRLSCAASGLIFQSYVMGWYRQAPGKERELVAAISSSVGSTHYADSVKGRFTISRDNAKNTVYLQMNSLKPEDTAVYYCAVEDYYADSGVEYDYWGQGTQVTVSS | low polyreactivity
QVQLVESGGGLVQAGGSLRLSCAASGRIFWNYAMGWYSQAPGKERELVASINWSGGSTYYADSVKGRFTISRDNAKNTVYLQMNSLKPEDTAVYYCNKDGRVYLDHDYWGQGTQVTVSS | low polyreactivity
QVQLVESGGGLVQAGGSLRLSCAASGLTFNVNPIVWYRQAPGKEREMVARITTSGGSTSYADSVKGRFTISRDNAKNTVYLQMNSLKPEDSAVYYCAADRARYYSEYDYWGQGTQVTVSS | low polyreactivity
QVQLVESGGGLVQAGGSLRLSCAASGFNFYYYAMGWYRQAPGKERELVAVLTESGSSTYYADSVKGRFTISRDNAKNTVYLQMNSLKPEDSAVYYCNADFWPFTGKYDSVHLDYWGQATQVTVSS | low polyreactivity
QVQLVESGGGLVQAGGRLRLSCAASGRTIYGYDKGWYRQAPGKERELVAAINIGGRTNYADSVKGRFTISRDNAKNTVYLQMNSLKPEDTAVYYCADRYTFGPYLARSYGYWGQGTQVTVSS | low polyreactivity
QVQLVESGGGLVQARGSLRLSCAASGNTFPSYAMGWYRQAHGKERELVAAITSGGRTYYADSVNGRFTISRDNAKNTVYLQLNSLKPEDTAVYYCAAEWVVRYPWYRYYYWGQGTEVTVSS | high polyreactivity
QVQLVESGGGLVQAGGSLRLSCAASGFTFDRYAMGWYRQAPGKERELVAAISRSGGSTHYADSVKGRFTISRDNAKNTVYLQMNSLKPEDTAVYYCNKRWYYDGYDYWGQGTQVTVSS | high polyreactivity
QVQLVESGGGLVQAGGSLRLSCAASGRTFYYYVMGWYRQAPGKERELVAAISARDGSTYYADSVKGRFTISRDNAKNTVYLQMNSLKPEDTAVYYCNVRALYTRRYDYWGQGTQVTVSS | high polyreactivity
QVQLVESGGGLVQAGGSHRLSCAASGGTYITNAMGWYRQAPGKERELVAAITSGGRTTYADSVKGRFTISRDNAKNTVYLQMNSLKPEDTAVYYCAADHVYSYTYNFDYWGQGTLVTVSS | low polyreactivity
QVQLVESGGGLVQAGGILRLSCASSGRIFGVNAMGWYRQATGKERELVATISSGGSTYYADSVKGRFTISRDNAKNTVYLQLNSLKPEDTAVYYCAADTRRYYLARYRTDYWGQGTQVTVSS | high polyreactivity
QVQLVESGGGLVQAVGSLRLTCAASGSIFGHYAMGLSRHAPGKDRELVAAISASTGRTYNADSVKGRFTISRDNAKNPVYLQMNSLKPEDTAFYYCAVRVHWTIWDYYYWGQGTQVTVSS | high polyreactivity
QVQLVESGGGLVQAGGSLRLSCAASGSTFGYYAMGWYRQAPGKERELVATITKRGGSTYADSVKGRFTISRDNAKNTVYLQMNSLKPEDTAVYYCAKLPFEDYDYWGQGTQVTVSS | low polyreactivity
QVQLVESGGGLVQAGGSLRLSCADSARTFNWNAMGWYRQAHGKERELVATISRRGGSTYYADSVKGRFTISRDNAKNTVYLQMNSLKPEDTAVYDCNTAGRYGYDYWGQGTQVTVSS | high polyreactivity
